Patent US20220144934A1 (Janssen / Centocor, published 2022)
Changes are numbered by the printed parent chain. In names and notes the source's numbering stands.

B1: GenTNV148.26.12 (antibody, human IgG1, kappa, V domains shown)
VH: QVQLVESGGGVVQPGRSLRLSCAASGFIFSSYAMHWVRQAPGNGLEWVAFMSYDGSNKKYADSVKGRFTISRDNPKNTLYLQMNSLRAEDTAVYYCARDRGIAAGGNYYYYGMDVWGQGTTVTVSS
VL: EIVLTQSPATLSLSPGERATLSCRASQSVYSYLAWYQQKPGQAPRLLIYDASNRATGIPARFSGSGSGTDFTLTISSLEPEDFAVYYCQQRSNWPPFTFGPGTKVDIKR
notes: also called C420A
B2: GenTNV86.14.34 (antibody, human IgG1, kappa, V domains shown)
VH: B1 VH
VL: B1 VL
notes: also called C417A
B3: golimumab (antibody, human IgG1, kappa, V domains shown)
VH: B1 VH with P75S
VL: B1 VL
modifications: partial cyclic succinimide at LC Asn93 (LC cycAsn93); N-glycosylated on asparagine 306; partial deamidation of HC Asn43
notes: Fully human IgG1 kappa, produced in Sp2/0 cells; also called SIMPONI

What was measured:
recombinant human TNFα [1] = target: T1, recombinant human TNFα (human, UniProt P01375 77-233, 125I-labeled in the receptor-blocking assay ; 125I-labelled (positions not stated) only in the receptor-blocking assay; soluble homotrimer of this 17 kD subunit); experiment: competition radioligand assay: mAb in hybridoma supernatant preincubated with 5 ng/ml 125I-TNFα, then 125I-TNFα bound to plate-coated p55-sf2 (TNF receptor/IgG fusion) counted as cpm
T1 construct: also called huTNFα; soluble human tumor necrosis factor alpha
Method: (§1) Although eight TNV mAb samples were tested in these experiments, for simplicity three of the mAbs that were shown by DNA sequence analyses to be identical to one of the other TNV mAbs (see Section 5.2.2) are not shown here. Each sample was tested in duplicate. The results shown are representative of two independent experiments.
(§2) 50:1 of p55-sf2 at 0.5 :g/ml in PBS was added to Optiplates to coat the wells during a one-hour incubation at 37° C. Serial dilutions of the eight TNV cell supernatants were prepared in 96-well round-bottom plates using PBS/0.1% BSA as diluent. […] The mixture was preincubated for one hour at RT. […] After 2 hrs at RT, Optiplates were washed three times with PBS-Tween. […] of Microscint-20 was added and the cpm bound determined using the TopCount gamma counter.

recombinant human TNFα [2] = target: T1, recombinant human TNFα; experiment: cell-based or functional assay
recombinant human TNFα [3] = target: T1, recombinant human TNFα; experiment: inhibition of 125I-TNFα binding to plate-coated p55-sf2 by hybridoma supernatant
Method: as §1, §2

human lymphotoxin = target: T2, human lymphotoxin (human, UniProt P01374 35-205, limits assumed); experiment: not described
T2 sequence (looked up): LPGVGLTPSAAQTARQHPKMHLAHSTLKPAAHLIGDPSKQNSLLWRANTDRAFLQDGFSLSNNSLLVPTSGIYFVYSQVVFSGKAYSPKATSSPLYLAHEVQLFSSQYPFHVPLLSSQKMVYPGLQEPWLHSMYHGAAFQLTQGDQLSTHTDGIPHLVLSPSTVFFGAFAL

Binder	IC50 (read off the curve) (recombinant human TNFα [1])	neutralizing TNFα bioactivity (potency relative to TNV14) (recombinant human TNFα [2])	fold better at blocking TNF binding than TNV118 and TNV14 (recombinant human TNFα [3])	binding result (human lymphotoxin)
B1	~3 ng/mL	4 fold	~4 fold	–
B2	–	–	~4 fold	–
B3	–	–	–	no binding
